According to PMC11565788 (bioRxiv, 2024):

B1: AP1σ3-His6 (full-length human AP1S3 with C-terminal His6 tag) (natural protein, UniProt Q96PC3-1 1-154, looked up)
chain: MIHFILLFSRQGKLRLQKWYITLPDKERKKITREIVQIILSRGHRTSSFVDWKELKLVYKRYASLYFCCAIENQDNELLTLEIVHRYVELLDKYFGNVCELDIIFNFEKAYFILDEFIIGGEIQETSKKIAVKAIEDSDMLQEVSTVSQTMGER
B2: AAGAB psGD (residues 2-177), tagless, coexpressed and co-purified with AP1σ3-His6 (domain or fragment, human, UniProt Q6PD74 2-177, looked up)
chain: AAGVPCALVTSCSSVFSGDQLVQHILGTEDLIVEVTSNDAVRFYPWTIDNKYYSADINLCVVPNKFLVTAEIAESVQAFVVYFDSTQKSGLDSVSSWLPLAKAWLPEVMILVCDRVSEDGINRQKAQEWCIKHGFELVELSPEELPEEDDDFPESTGVKRIVQALNANVWSNVVMK

What was measured:
[1] = molecular target: B2; experiment: crystal structure
[2] = molecular target: B1; experiment: SEC

binding result [1] | stoichiometry N [2] | Binder
binds | – | B1
– | 1 | B2
